Results on 2 molecules are retold here after patent publication US20260273042A1 (INTERNATIONAL AIDS VACCINE INITIATIVE, published 2026).

One assay concerns the target AC10 Olio6. In words: SPR (ligand and analyte not given).
The target in the next assay is BG505 MD53. In words: SPR (ligand and analyte not given).
For the next assay, the target named is MD39-10MUT. In words: SPR, trimer ligand, Fab analyte (1-to-1 fit relatively poor) [panel A]. (In SPR one partner is held on a chip, and binding of the other changes the refractive index at the surface.)

B1: PGT145 (antibody, V domains shown)
VH: QVQLVQSGAEVKKPGSSVKVSCKASGNSFSNHDVHWVRQATGQGLEWMGWMSHEGDKTGLAQKFQGRVTITRDSGASTVYMELRGLTADDTAIYYCLTGSKHRLRDYFLYNEYGPNYEEWGDYLATLDVWGHGTAVTVSS
VL: EVVITQSPLFLPVTPGEAASLSCKCSHSLQHSTGANYLAWYLQRPGQTPRLLIHLATHRASGVPDRFSGSGSGTDFTLKISRVESDDVGTYYCMQGLHSPWTFGQGTKVEIKR
By Kd is commonly meant the concentration at which binding is half-saturated. On to B1, for which the Kd came out at 53 nM in the assay with AC10 Olio6 and 22 nM with BG505 MD53.

B2: PGT151 Fab (Fab, V domains shown)
VH: RVQLVESGGGVVQPGKSVRLSCVVSDFPFSKYPMYWVRQAPGKGLEWVAAISGDAWHVVYSNSVQGRFLVSRDNVKNTLYLEMNSLKIEDTAVYRCARMFQESGPPRLDRWSGRNYYYYSGMDVWGQGTTVTVSS
VL: DIVMTQTPLSLSVTPGQPASISCKSSESLRQSNGKTSLYWYRQKPGQSPQLLVFEVSNRFSGVSDRFVGSGSGTDFTLRISRVEAEDVGFYYCMQSKDFPLTFGGGTKVDLKR
In the assay with MD39-10MUT, B2 had a Kd of 35 nM.
